The values below come from publication PMC4445678 (Structure (London, England : 1993), 2010).

The target of experiment [1] is CBX7 cbox (Homo sapiens) (UniProt O95931). The settings on record: cited from earlier work.
Experiment [2] concerns the target T1, C-RING1B (C-terminal domain of RING1B), wild-type (human, UniProt Q99496 222-336).
T1 sequence (looked up): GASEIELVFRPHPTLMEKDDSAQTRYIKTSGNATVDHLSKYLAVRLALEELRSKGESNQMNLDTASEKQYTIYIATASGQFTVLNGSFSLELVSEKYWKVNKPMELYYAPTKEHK
Kind of experiment: SPR. Background: Surface plasmon resonance follows binding to a sensor surface in real time, without labels.

Experiment [3] addresses T2, C-RING1B 223–333 N306D (human, UniProt Q99496 223-333, N306D).
T2 sequence (looked up): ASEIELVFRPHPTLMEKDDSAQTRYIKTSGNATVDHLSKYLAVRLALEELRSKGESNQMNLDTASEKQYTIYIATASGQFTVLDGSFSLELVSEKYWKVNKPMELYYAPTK
Nature of the experiment: crystal structure.

The target in experiment [4] is T1, C-RING1B (C-terminal domain of RING1B), …. Kind of experiment: AUC.
The target in experiment [5] is T2, C-RING1B 223–333 N306D. Nature of the experiment: crystal structure. This is another data set of the same source.

Like-named read-outs stand apart in the source and are kept apart here.

As for RING1B C-RING1B (from UniProt Q99496), the dissociation constant Kd in experiment [1] was 9.2 nM. In experiment [2], RPRLKNVDRSTAQQLAVTVGNVTVIITDFKEKTRS (domain or fragment, human, UniProt Q8N488 145-179, looked up) [MBP-RYBP 145–179] came in with a Kd of 90 nM.

On to RPRLKNVDRSTAQQLAVTVGNVTVIITDFKEKTRS (domain or fragment, human, UniProt Q8N488 145-179, looked up) [RYBP 145–179], for which the binding result in experiment [3] is given as “binds”.

B1: RYBP 145–198 (domain or fragment, human, UniProt Q8N488 145-198, looked up)
chain: RPRLKNVDRSTAQQLAVTVGNVTVIITDFKEKTRSSSTSSSTVTSSAGSEQQNQ
For the molecule B1, in experiment [4], the “stoichiometry N” value turned out to be 1.

B2: MBP-RYBP 145–198 (domain or fragment, human, UniProt Q8N488 145-198, looked up)
chain: B1 chain
In the case of B2, binding in experiment [2] was put at a Kd of 100 nM.

As for EVTVTDITANSITVTFREAQAAEGFFRDRS (domain or fragment, human, UniProt O95931 219-248, looked up) [cbx7 219–248], the binding result in experiment [5] was “binds”.

A word on the Kd: it is a measure of binding affinity in units of concentration. In general, stoichiometry N refers to a count of units in the complex or per binding partner.
